Data taken from article PMC2646901.

How the values were obtained:
[1] = target: formyl peptide receptor (FPR) (UniProt P21462)
[2] = target: human C5a receptor (C5aR) (human) (UniProt P21730); assay: flow cytometry on cells; competition: RBL cells transfected with human C5aR pre-treated with unlabelled CHIPS or human C5a, then 210 nM FITC-rCHIPS(28-149); cell-associated fluorescence
[3] = target: human C5a receptor (C5aR) (human) (UniProt P21730); assay: flow cytometry on cells; inhibition of ligand binding: transfected cells co-incubated with rCHIPS(28-149) and His6-C5a (50 nM), His6-C5a des Arg (50 nM) or FITC-formyl peptide (500 nM); 30 min at 4 °C in PBS + 0.1% BSA, 0.2% NaN3; His6 ligands detected with anti-RGSHis6 and anti-mouse IgG-FITC
[4] = target: C5a-like receptor 2 (C5L2), the second C5a receptor (UniProt Q9P296); assay: as above
[5] = target: human C5a receptor (C5aR) (human) (UniProt P21730)
[6] = target: human C5a receptor (C5aR) (human) (UniProt P21730); assay: flow cytometry on cells; kinetics: 300 nM FITC-CHIPS(28-149) added to C5aR-transfected RBL cells, dissociation started with 14 μM unlabelled CHIPS(28-149); Kd from kobs and koff, five experiments

human C5a receptor (C5aR) (human), sequence (P21730 whole entry): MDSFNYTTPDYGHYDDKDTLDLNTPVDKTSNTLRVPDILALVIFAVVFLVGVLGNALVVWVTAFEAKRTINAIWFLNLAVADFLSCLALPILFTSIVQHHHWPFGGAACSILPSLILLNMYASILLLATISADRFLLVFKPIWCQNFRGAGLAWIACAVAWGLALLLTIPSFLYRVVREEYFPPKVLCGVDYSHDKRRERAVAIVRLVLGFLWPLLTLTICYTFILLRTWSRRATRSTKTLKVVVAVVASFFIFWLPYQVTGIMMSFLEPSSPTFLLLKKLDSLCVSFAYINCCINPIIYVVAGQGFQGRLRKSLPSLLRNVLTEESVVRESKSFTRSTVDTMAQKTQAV
formyl peptide receptor (FPR), sequence (P21462 whole entry): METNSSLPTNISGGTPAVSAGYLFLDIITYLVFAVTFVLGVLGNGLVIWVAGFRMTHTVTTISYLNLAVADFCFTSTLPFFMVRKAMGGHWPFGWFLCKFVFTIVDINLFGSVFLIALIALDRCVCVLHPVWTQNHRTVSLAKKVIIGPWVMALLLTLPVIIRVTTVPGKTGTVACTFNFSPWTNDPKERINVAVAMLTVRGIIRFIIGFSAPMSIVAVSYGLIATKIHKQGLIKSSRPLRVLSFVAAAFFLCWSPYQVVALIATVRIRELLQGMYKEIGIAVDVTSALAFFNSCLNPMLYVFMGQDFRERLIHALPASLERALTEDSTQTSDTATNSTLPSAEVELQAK
C5a-like receptor 2 (C5L2), the second C5a receptor, sequence (Q9P296 whole entry): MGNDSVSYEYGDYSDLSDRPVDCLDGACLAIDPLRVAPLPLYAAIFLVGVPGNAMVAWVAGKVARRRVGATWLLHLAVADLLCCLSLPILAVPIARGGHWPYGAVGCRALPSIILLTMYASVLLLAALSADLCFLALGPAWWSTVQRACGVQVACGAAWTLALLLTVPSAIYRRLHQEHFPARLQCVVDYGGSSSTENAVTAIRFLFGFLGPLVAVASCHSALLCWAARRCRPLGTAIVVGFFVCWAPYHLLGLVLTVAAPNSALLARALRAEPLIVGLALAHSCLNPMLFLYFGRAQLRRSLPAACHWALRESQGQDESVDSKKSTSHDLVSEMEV

## rCHIPS_(30–141) (from UniProt A6QIG7 30-141) (domain or fragment)
[1]
  inhibition of FPR activation by formyl peptide on RBL cells (Schild plot); potency relative to rCHIPS(28-149): 12 fold

## recombinant chemotaxis inhibitory protein of Staphylococcus aureus, residues 28-149 (rCHIPS_(28–149)) (from UniProt A6QIG7 28-149) (domain or fragment)
[2]
  IC50: 0.069 µM
[3]
  IC50: 0.0067 µM
[4]
  IC50: 0.274 µM
[5]
  inhibition of C5a-induced activation of C5aR on RBL cells (secretion of β-hexosaminidase); blocks C5a + C5aR: 2.44 µM
[1]
  inhibition of formyl peptide-induced activation of FPR on RBL cells (secretion of β-hexosaminidase): > 1 mM

## FITC-labelled recombinant CHIPS_(28–149) (from UniProt A6QIG7 28-149) (domain or fragment)
[6]
  t1/2 of association: 10.2 s
  t1/2 of dissociation: 43.8 s
